Target: SiaM (Streptomyces sp. A7248)
Test: small-angle X-ray scattering (SAXS); SiaM in 10 mM Na2HPO4, 1.8 mM KH2PO4, 400 mM Na2SO4, pH 8.3, 4°C; curves of monomer, two dimers and tetramer fitted with CRYSOL; mixture analysed with OLIGOMER

stoichiometry N: 4
Substance: SiaM (enzyme)

Reference: PMC4046962
